The results in this text go back to patent US9618524B2, “Method, composition, isolation and identification of a plaque particle and related biomarker” (Plaxgen Inc., priority 2012, dated 2017).

Experiment in all cases: Mass spectroscopy proteomics, semi-quantitative binding affinity of serum proteins (plaqueproteome, Table 2)
Holding throughout (details): higher number = stronger affinity

In experiment [1] the target is T1, Abeta-42 plaque particles (Homo sapiens, UniProt P05067).
T1 construct: Abeta 1-42
In short, it runs like this:
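AD patient serum or plasma (50% in PBS) was incubated with Abeta-42 aggregates (30 μg) for 1 h at 37 °C, then stained with Thioflavin S for 30 min. Labeled particles were FACS-sorted, trypsin/Lys-C digested overnight and analyzed by MS/MS. Sequest searched human UniProt; Scaffold/Protein Prophet validated the identifications.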

The subject of experiment [2] is High Density cholesterol (Chl Large) plaque particles. Set-up: species or system human. In short, it runs like this:
(§1)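 Atherosclerotic plasma/serum (50% in PBS) + 30 μg cholesterol aggregates, 1 hr 37° C; FACS gates split low- vs high-density particles. Acetone precipitation, urea/ProteaseMAX, acrylamide alkylation, overnight Trypsin/Lys C at 37° C; Sequest search, Scaffold/Protein Prophet validation.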

The test system of experiment [3] is Low density cholesterol (Chl small) plaque particles. Set-up: species or system human. The essentials: as §1
Experiment [4] concerns the target T2, alpha-synuclein plaque particles (Homo sapiens, UniProt P37840).
T2 construct: 140 amino acids polypeptide
In short, it runs like this:
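AD-subject plasma or serum (800 μL of 50%) mixed with 30 μg preformed alpha-synuclein aggregates for 1 h at 37 °C; Thioflavin S-positive particles isolated by flow sorting. After reduction, acrylamide alkylation and overnight tryptic digestion, serum proteins identified by MS/MS with Sequest and Scaffold.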

For the next experiment, the system named is Tau plaque particles. The arrangement: species or system human. The essentials:
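Synthetic Tau-74 and Tau-275 peptides (1 mg/mL PBS, 37° C, 2 h) aggregated; 30 μg aggregates incubated with 50% serum/plasma 1 h at 37° C, stained with Thioflavin S, and plaque particles sorted by flow cytometry. Bound proteins trypsin-digested and identified by MS/MS against human UniProt.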

B1: Desmoglein-1 (protein)
chain: EWIKFAAACREGEDNSKRNPIAKIHSDCAANQQVTYRISGVGIDQPPYGIFVINQKTGEINITSIVDREVTPFFIIYCRALNSMGQDLERPLELRVRVLDINDNPPVFSMATFAGQIEENSNANTLVMILNATDADEPNNLNSKIAFKIIRQEPSDSPMFIINRNTGEIRTMNNFLDREQYGQYALAVRGSDRDGGADGMSAECECNIKILDVNDNIPYMEQSSYTIEIQENTLNSNLLEIRVIDLDEEFSANWMAVIFFISGNEGNWFEIEMNERTNVGILKVVKPLDYEAMQSLQLSIGVRNKAEFHHSIMSQYKLKASAISVTVLNVIEGPVFRPGSKTYVVTGNMGSNDKVGDFVATDLDTGRPSTTVRYVMGNNPADLLAVDSRTGKLTLKNKVTKEQYNMLGGKYQGTILSIDDNLQRTCTGTININIQSFGNDDRTNTEPNTKITTNTGRQESTSSTNYDTSTTSTDSSQVYSSEPGNGAKDLLSDNVHFGPAGIGLLIMGFLVLGLVPFLMICCDCGGAPRSAAGFEPVPECSDGAIHSWAVEGPQPEPRDITTVIPQIPPDNANIIECIDNSGVYTNEYGGREMQDLGGGERMTGFELTEGVKTSGMPEICQEYSGTLRRNSMRECREGGLNMNFMESYFCQKAYAYADEDEGRPSNDCLLIYDIEGVGSPAGSVGCCSFIGEDLDDSFLDTLGPKFKKLADISLGKESYPDLDPSWPPQSTEPVCLPQETEPVVSGHPPISPHFGTTTVISESTYPSGPGVLHPKPILDPLGYGNVTVTESYTTSDTLKPSVHVHDNRPASNVVVTERVVGPISGADLHGMLEMPDLRDGSNVIVTERVIAPSSSLPTSLTIHHPRESSNVVVTERVIQPTSGMIGSLSMHPELANAHNVIVTERVVSGAGVTGISGTTGISGGIGSSGLVGTSMGAGSGALSGAGISGGGIGLSSLGGTASIGHMRSSSDHHFNQTIGSASPSTARSRITKYSTVQYSK
B1: the “Semi-quantitative analysis of proteins binding to different plaque particles: Abeta-42” value in experiment [1] came out at 5. Moreover, the “Semi-quantitative analysis of proteins binding to different plaque particles: Chl Large” value in experiment [2] was found to be 0. Also, the “Semi-quantitative analysis of proteins binding to different plaque particles: Chl small” value in experiment [3] is on record as 0. Moreover, in experiment [4], the “Semi-quantitative analysis of proteins binding to different plaque particles: Synuclein” value amounted to 0. The “Semi-quantitative analysis of proteins binding to different plaque particles: Tau” value with Tau plaque particles was 0.

B2: Apolipoprotein C-II (protein)
chain: TQQPQQDEMPSPTFLTQVKESLSSYWESAKTAAQNLYEKTYLPAVDEKLRDLYSKSTAAMSTYTGIFTDQVLSVLKGEE
Regarding B2, the “Semi-quantitative analysis of proteins binding to different plaque particles: Abeta-42” value in experiment [1] stood at 0. The “Semi-quantitative analysis of proteins binding to different plaque particles: Chl Large” value in experiment [2] turned out to be 0. In addition, the “Semi-quantitative analysis of proteins binding to different plaque particles: Chl small” value in experiment [3] is reported as 1. For the same molecule, the “Semi-quantitative analysis of proteins binding to different plaque particles: Synuclein” value in experiment [4] is 1. Also, the “Semi-quantitative analysis of proteins binding to different plaque particles: Tau” value with Tau plaque particles was 0.

B3: Platelet basic protein (protein)
chain: SSTKGQTKRNLAKGKEESLDSDLYAELRCMCIKTTSGIHPKNIQSLEVIGKGTHCNQVEVIATLKDGRKICLDPDAPRIKKIVQKKLAGDESAD
For the molecule B3, in experiment [1], the “Semi-quantitative analysis of proteins binding to different plaque particles: Abeta-42” value is given as 0. Further, the “Semi-quantitative analysis of proteins binding to different plaque particles: Chl Large” value in experiment [2] was found to be 0. In addition, the “Semi-quantitative analysis of proteins binding to different plaque particles: Chl small” value in experiment [3] is given as 0. The “Semi-quantitative analysis of proteins binding to different plaque particles: Synuclein” value in experiment [4] was 1. In addition, the “Semi-quantitative analysis of proteins binding to different plaque particles: Tau” value in the experiment on Tau plaque particles amounted to 2.

B4: Ig lambda chain V-III region LOI (protein)
chain: VTSYVLTQPPSVSVAPGQTARITCGGNNIGSKSVHWYQQKPGQAPVLVVYDDSDRPSGIPERFSGSNSGNTATLTISRVEAGDEADYYCQVWDSSSDHPT
As for B4, the “Semi-quantitative analysis of proteins binding to different plaque particles: Abeta-42” value in experiment [1] is given as 2. Also, the “Semi-quantitative analysis of proteins binding to different plaque particles: Chl Large” value in experiment [2] is given as 1. The “Semi-quantitative analysis of proteins binding to different plaque particles: Chl small” value in experiment [3] was 1. The “Semi-quantitative analysis of proteins binding to different plaque particles: Synuclein” value in experiment [4] amounted to 2. In addition, the “Semi-quantitative analysis of proteins binding to different plaque particles: Tau” value with Tau plaque particles worked out at 1.

B5: Ig lambda chain V-III region (protein)
chain: SELTQDPAVSVALGQTVRITCQGDSLRSYYASWYQQKPGQAPVLVIYGKNNRPSGIPDRFSGSSSGNTASLTITGAQAEDEADYYCNSRDSS
Take B5: the “Semi-quantitative analysis of proteins binding to different plaque particles: Abeta-42” value in experiment [1] is 0. Besides, in experiment [2], the “Semi-quantitative analysis of proteins binding to different plaque particles: Chl Large” value was 1. Also, in experiment [3], the “Semi-quantitative analysis of proteins binding to different plaque particles: Chl small” value is given as 1. The “Semi-quantitative analysis of proteins binding to different plaque particles: Synuclein” value in experiment [4] turned out to be 2. Further, the “Semi-quantitative analysis of proteins binding to different plaque particles: Tau” value in the experiment on Tau plaque particles is given as 2.

B6: Isoform 2 of N-acetylmuramoyl-L-alanine amidase (protein)
chain: SLPLLMDSVIQALAELEQKVPAAKTRHTASAWLMSAPNSGPHNRLYHFLLGAWSLNATELDPCPLSPELLGLTKEVARHDVREGKEYGVVLAPDGSTVAVEPLLAGLEAGLQGRRVINLPLDSMAAPWETGDTFPDVVAIAPDVRATSSPGLRDGSPDVTTADIGANTPDATKGCPDVQASLPDAKAKSPPTMVDSLLAVTLAGNLGLTFLRGSQTQSHPDLGTEGCWDQLSAPRTFTLLDPKASLLTMAFLNGALDGVILGDYLSRTPEPRPSLSHLLSQYYGAGVARDPGFRSNFRRQNGAALTSASILAQQVWGTLVLLQRLEPVHLQLQCMSQEQLAQVAANATKEFTEAFLGCPAIHPRCRWGAAPYRGRPKLLQLPLGFLYVHHTYVPAPPCTDFTRCAANMRSMQRYHQDTQGWGDIGYSFVVGSDGYVYEGRGWHWVGAHTLGHNSRGFGVAIVGNYTAALPTEAALRTVRDTLPSCAVRAGLLRPDYALLGHRQLVRTDCPGDALFDLLRTWPHFTAVSLRSLHYTARRPSVYTSSTRPLPPACNSCARTASARPPTSRRHVYSGNLGPAFAGHSAGNIPDPVTSAYAASAQPQTQPACPFPSS
In the case of B6, the “Semi-quantitative analysis of proteins binding to different plaque particles: Abeta-42” value in experiment [1] turned out to be 0. In experiment [2], the “Semi-quantitative analysis of proteins binding to different plaque particles: Chl Large” value worked out at 4. In addition, the “Semi-quantitative analysis of proteins binding to different plaque particles: Chl small” value in experiment [3] is on record as 1. For the same molecule, the “Semi-quantitative analysis of proteins binding to different plaque particles: Synuclein” value in experiment [4] is reported as 2. For the same molecule, the “Semi-quantitative analysis of proteins binding to different plaque particles: Tau” value with Tau plaque particles is 5.

B7: Complement C2 (protein)
chain: APSCPQNVNISGGTFTLSHGWAPGSLLTYSCPQGLYPSPASRLCKSSGQWQTPGATRSLSKAVCKPVRCPAPVSFENGIYTPRLGSYPVGGNVSFECEDGFILRGSPVRQCRPNGMWDGETAVCDNGAGHCPNPGISLGAVRTGFRFGHGDKVRYRCSSNLVLTGSSERECQGNGVWSGTEPICRQPYSYDFPEDVAPALGTSFSHMLGATNPTQKTKESLGRKIQIQRSGHLNLYLLLDCSQSVSENDFLIFKESASLMVDRIFSFEINVSVAIITFASEPKVLMSVLNDNSRDMTEVISSLENANYKDHENGTGTNTYAALNSVYLMMNNQMRLLGMETMAWQEIRHAIILLTDGKSNMGGSPKTAVDHIREILNINQKRNDYLDIYAIGVGKLDVDWRELNELGSKKDGERHAFILQDTKALHQVFEHMLDVSKLTDTICGVGNMSANASDQERTPWHVTIKPKSQETCRGALISDQWVLTAAHCFRDGNDHSLWRVNVGDPKSQWGKEFLIEKAVISPGFDVFAKKNQGILEFYGDDIALLKLAQKVKMSTHARPICLPCTMEANLALRRPQGSTCRDHENELLNKQSVPAHFVALNGSKLNINLKMGVEWTSCAEVVSQEKTMFPNLTDVREVVTDQFLCSGTQEDESPCKGESGGAVFLERRFRFFQVGLVSWGLYNPCLGSADKNSRKRAPRSKVPPPRDFHINLFRMQPWLRQHLGDVLNFLPL
With B7, the “Semi-quantitative analysis of proteins binding to different plaque particles: Abeta-42” value in experiment [1] is recorded as 0. Also, the “Semi-quantitative analysis of proteins binding to different plaque particles: Chl Large” value in experiment [2] was 0. Also, the “Semi-quantitative analysis of proteins binding to different plaque particles: Chl small” value in experiment [3] was 1. For the same molecule, in experiment [4], the “Semi-quantitative analysis of proteins binding to different plaque particles: Synuclein” value is 0. The “Semi-quantitative analysis of proteins binding to different plaque particles: Tau” value in the experiment on Tau plaque particles was 0.

B8: Ig gamma-2 chain C region (protein)
chain: ASTKGPSVFPLAPCSRSTSESTAALGCLVKDYFPEPVTVSWNSGALTSGVHTFPAVLQSSGLYSLSSVVTVPSSNFGTQTYTCNVDHKPSNTKVDKTVERKCCVECPPCPAPPVAGPSVFLFPPKPKDTLMISRTPEVTCVVVDVSHEDPEVQFNWYVDGVEVHNAKTKPREEQFNSTFRVVSVLTVVHQDWLNGKEYKCKVSNKGLPAPIEKTISKTKGQPREPQVYTLPPSREEMTKNQVSLTCLVKGFYPSDISVEWESNGQPENNYKTTPPMLDSDGSFFLYSKLTVDKSRWQQGNVFSCSVMHEALHNHYTQKSLSLSPGK
As to B8, in experiment [1], the “Semi-quantitative analysis of proteins binding to different plaque particles: Abeta-42” value was found to be 11. Besides, the “Semi-quantitative analysis of proteins binding to different plaque particles: Chl Large” value in experiment [2] was 12. For the same molecule, the “Semi-quantitative analysis of proteins binding to different plaque particles: Chl small” value in experiment [3] amounted to 14. In experiment [4], the “Semi-quantitative analysis of proteins binding to different plaque particles: Synuclein” value came out at 10. The “Semi-quantitative analysis of proteins binding to different plaque particles: Tau” value with Tau plaque particles is 11.
